Residue numbers refer to the chain shown, from its start. Read-outs that look alike come from different tables or passages of the source.
B1: humanized antibody hu7B10 (with VH-b heavy chain and VL-b light chain) (antibody, human IgG1, kappa, V domains shown)
VH: EVQLVQSGAEVKKPGASVKVSCKASGYTFTSYWMHWVRQAPGQGLEWMGLIHPNSDTTKFSENFKTRVTMTIDTSISTAYMELSRLRSDDTAVYYCAKSKIITTIVARHWYFDVWGQGTTVTVSS
VL: DIVLTQTPLSLSVTPGQPASISCKASQSVDYGGDSYMNWYLQKPGQPPQLLIYAASNLESGVPDRFSGSGSGTDFTLKISRVEAEDVGVYYCQHSNENPPTFGGGTKVEIKR
B2: human-mouse chimeric antibody 7B10-C (antibody, V domains shown)
VH: QVQLQQPGTELLKPGASVSLSCKASGYTFTSYWMHWVKQRPGQGLEWIGLIHPNSDTTKFSENFKTRATLTIDKSSSTAYMKLSSLTSEDSAVYYCAKSKIITTIVARHWYFDVWGTGTTVTVSS
VL: DIVLTQSPPSLAVSLGQRATISCKASQSVDYGGDSYMNWYQQKLGQPPKVLIYAASNLESGIPARFSGSGSGTDFTLNIHPVEEEDVATYYCQHSNENPPTFGGGTKLEIK
B3: mouse monoclonal antibody 7B10 (antibody, V domains shown)
VH: B2 VH
VL: B2 VL
B4: murine monoclonal antibody 25G7 (antibody, V domains shown)
VH: EVQLVESGGGLVKPGGSLKLSCAASGFTFSDYGMHWVRQAPEKGLEWVAFISSGSSIIYYADIVKGRSTISRDNAKNTLFLQMTSLRSEDTAMYYCTRGNKRGFFDYWGQGTILTVSS
VL: QIVLTQSPALMSASPGEKVTMTCNASSSVSYMYWYQRKPRSSPKPWIYLTSNLASGVPVRFSGSGSGTSYSLTISSMEAEDAATYYCQQWRSNPPMLTFGSGTKLEVK
B5: affinity-matured humanized antibody hu25G7-A (antibody, human IgG4 S228P, kappa, V domains shown)
VH: B4 VH with K13Q, K19R, E42G, F80Y, T84N, S88A, M93V, I113L, L114V
VL: EIVLTQSPATLSLSPGERATLSCRASSSVPYMYWYQQKPGQAPRLLIYLTSNLASGIPARFSGSGSGTDFTLTISSLEPEDFAVYYCQQWRAYPPMLTFGGGTKVEIKR
B6: human-mouse chimeric antibody 25G7-C (antibody, V domains shown)
VH: B4 VH
VL: B4 VL
B7: humanized antibody hu25G7 (with VH-c heavy chain and VL-a light chain) (antibody, human IgG4 S228P, kappa, V domains shown)
VH: B4 VH with K13Q, K19R, E42G, T78S, F80Y, T84N, S88A, M93V, I113L, L114V
VL: B5 VL with R24N, P30S, A92S, Y93N
B8: affinity-matured humanized antibody hu25G7-B (antibody, human IgG4 S228P, kappa, V domains shown)
VH: B4 VH with K13Q, K19R, E42G, F80Y, T84N, S88A, M93V, I113L, L114V
VL: EIVLTQSPATLSLSPGERATLSCRASPGVPPLAWYQQKPGQAPRLLIYLASSRPSGIPARFSGSGSGTDFTLTISSLEPEDFAVYYCQQWRSNPPMLTFGGGTKVEIKR
B9: Dupilumab (antibody, V domains shown)
VH: EVQLVESGGGLEQPGGSLRLSCAGSGFTFRDYAMTWVRQAPGKGLEWVSSISGSGGNTYYADSVKGRFTISRDNSKNTLYLQMNSLRAEDTAVYYCAKDRLSITIRPRYYGLDVWGQGTTVTVSS
VL: DIVMTQSPLSLPVTPGEPASISCRSSQSLLYSIGYNYLDWYLQKSGQSPQLLIYLGSNRASGVPDRFSGSGSGTDFTLKISRVEAEDVGFYYCMQALQTPYTFGQGTKLEIKR

What was measured:
Test in all cases: cell-based or functional assay
[1] = target: T1, human IL-4R on cells (HEK-Blue IL-4 cells, TF-1 cells) (human, UniProt P24394 26-825)
[2] = target: T1, human IL-4R on cells (HEK-Blue IL-4 …); remark: listed apart in the source
[3] = target: T1, human IL-4R on cells (HEK-Blue IL-4 …); remark: listed apart in the source
[4] = target: T1, human IL-4R on cells (HEK-Blue IL-4 …); remark: listed apart in the source

Binder | Inhibiting the proliferation of TF-1 cell by IL-4 (IC50) [1] | blocking the binding of HEK293-Blue IL-4 cell (to IL-4) (IC50) [1] | Inhibiting the proliferation of TF-1 cells by IL-4 (IC50) [2] | blocking the binding of HEK293-Blue IL-4 cell (to IL-4) (IC50) [2] | Inhibiting the proliferation of TF-1 cells by IL-4 (IC50) [3] | blocking of the binding of HEK293-Blue IL-4 cell (to IL-4) (IC50) [3] | Inhibiting the proliferation of TF-1 cell by IL-13 (IC50) [4] | Inhibiting the proliferation of TF-1 cells by IL-4 (IC50) [4] | blocking the binding of HEK293-Blue cells (with IL-4) (IC50) [4] | blocking the binding of HEK293-Blue cells (with IL-13) (IC50) [4]
B1 | 0.112 µg/mL | 0.00687 µg/mL | – | – | – | – | – | – | – | –
B2 | – | – | 0.0464 µg/mL | 0.00903 µg/mL | – | – | – | – | – | –
B3 | – | – | – | – | 0.418 µg/mL | 0.0798 µg/mL | – | – | – | –
B4 | – | – | – | – | 0.0513 µg/mL | 0.000975 µg/mL | – | – | – | –
B5 | – | – | – | – | – | – | 0.0132 µg/mL | 0.0837 µg/mL | 0.00649 µg/mL | 0.01 µg/mL
B6 | – | – | 0.0203 µg/mL | 0.00202 µg/mL | – | – | – | – | – | –
B7 | 0.0296 µg/mL | 0.000943 µg/mL | – | – | – | – | – | – | – | –
B8 | – | – | – | – | – | – | 0.0137 µg/mL | 0.051 µg/mL | 0.0066 µg/mL | 0.00838 µg/mL
B9 | 0.491 µg/mL | 0.000667 µg/mL | 0.207 µg/mL | 0.00324 µg/mL | 0.102 µg/mL | 0.00507 µg/mL | 0.0181 µg/mL | 0.101 µg/mL | 0.0125 µg/mL | 0.0148 µg/mL

Reference: patent US20210238294A1 (JIANGSU HENGRUI MEDICINE, published 2021)
